Measurements from the supplement of paper PMC12042874.
± gives the uncertainty stated by the source.

Test: amyloid nucleation score (Sup35N fusion, yeast selection) (log enrichment); library NNK1; higher = more nucleation; inactive = no reads after selection
Procedure, shortened: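 Yeast lacking psi expressed peptides of 20 random codons fused to Sup35N, received 100 μM copper sulfate for 24 hours, and were then grown for 7 days at 30°C on medium lacking adenine and uracil. Illumina sequencing of input and output plasmid inserts provided the reads. Nucleation scores are DiMSum log enrichments of output over input, centred on the mode of non-aggregating sequences. Any sequence with under 100 input reads was excluded.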

Row | Substance | amyloid nucleation score
1 | HMRDLEDPQWSDY | -0.711 ± 0.32
2 | HNFEFTRLAHLDSSTL | 0.248 ± 0.47
3 | HNFLSYFQNRNDYCASN | -0.503 ± 0.6
4 | HNHSTYFHYRFGVSLVLTSR | 2.29 ± 0.38
5 | HPLLMYWRRTFVEHRLYLT | 0.031 ± 1.2
6 | HPLWGPYR | 0.518 ± 0.59
7 | HPSTRCAVANDNIWPLSGPR | 0.628 ± 0.75
8 | HPSVGYSSLVV | 0.841 ± 0.62
9 | HPYSFWWSWAVKPLPGLRRI | 0.485 ± 0.73
10 | HQKACCSRLMNCGYNSAKWR | -0.612 ± 0.89
11 | HRCRREYSQSSGSWDESIEN | 1.05 ± 0.14
12 | HRRLRMRT | -0.469 ± 0.79
13 | HRSRITLANVS | -0.666 ± 0.32
14 | HRSSNVSGLVWSFHRMKYVI | 0.599 ± 0.79
15 | HRVLYIPALDNVVCRDIWRV | 1.29 ± 0.46
16 | HSAFSWNYRDSFVEGCSSHG | 0.018 ± 0.3
17 | HSCAFNESHVFMHILCVISQ | -0.319 ± 0.44
18 | HSGGVTIQLCSKACVYSGAG | 0.754 ± 0.19
19 | HSIVDSRLSCICILSS | 4.16 ± 0.16
20 | HSLRQKVPM | 0.227 ± 0.3
21 | HSPLTRNVRSCVK | 0.718 ± 0.36
22 | HSRLLASYS | 1.34 ± 0.43
23 | HSSNFGRDSNSWLRAVD | -0.3 ± 0.61
24 | HSTTLPLLWAYILYPAFG | -0.267 ± 0.37
25 | HSYTTV | -0.905 ± 2.1

Row | Substance | amyloid nucleation score
26 | HVDFQVASSDEDLIHLFLYH | 0.258 ± 0.54
27 | HVFIIQRMSWGVLRLLVSCR | -0.548 ± 0.52
28 | HVHVTACCRLM | 7.44 ± 0.077
29 | HVIYRLRGFITSSPFMTLRT | 0.577 ± 0.45
30 | HVSACRNKIHLWSRTHLSGE | 0.83 ± 0.5
31 | HVVKCGHYLRRVRNMGKLEF | -0.163 ± 0.79
32 | HVYMGYICCHAETDACMGCR | 4.57 ± 0.14
33 | HWYVTVCLVSMCQVGKGKDN | 3.5 ± 0.087
34 | HYKDSITVFFIFHIPIQMMM | 4.25 ± 0.057
35 | HYQERC | -0.604 ± 0.34
36 | HYRRVTVMCPLRVFVYAPKT | 5.61 ± 0.094
37 | HYVGSLMVSW | 0.188 ± 0.81
38 | HYVRNPARD | inactive
39 | HYVVVKRRPMDMSGLVGWDA | 0.036 ± 0.43
40 | IACSARMFYDS | 0.399 ± 0.47
41 | IAGIEGPI | -0.182 ± 1.3
42 | IASSSTRFLYV | 0.813 ± 0.51
43 | IAVDTRVGASYVCGSS | -0.535 ± 0.79
44 | IAYVQFAPRKY | 0.776 ± 0.36
45 | ICCGCRYFFSTTSV | 6.7 ± 0.06
46 | ICELIWGGRRSNGINGSTSG | 0.741 ± 0.23
47 | ICGRNTLCARRRTSRLVGIE | 1.1 ± 0.97
48 | ICHGAEHNV | -0.735 ± 1.7
49 | ICIREPTNESLAQLSDGVIR | 2.06 ± 0.6
50 | ICLITVSMYKSRWIFSKKLT | -0.073 ± 0.54

Row | Substance | amyloid nucleation score
51 | ICLMFLSGTIDYYLY | 0.111 ± 0.84
52 | ICYKGREHKPRIVNIGSDVR | inactive
53 | ICYNKSSP | -0.097 ± 1.2
54 | ICYSGHERYWLNLGICEGDS | 0.186 ± 0.32
55 | IDGCLPTNRVGSSRSVRGNV | inactive
56 | IDNGDCYNDRVLADTVS | -0.577 ± 0.6
57 | IDSKFQPK | 0.972 ± 0.84
58 | IDVWCESRVWRTWVYLGVRV | 0.903 ± 0.56
59 | IECVS | -0.251 ± 0.68
60 | IEGDFEFGVNVSRAARDMRV | -0.856 ± 0.94
61 | IENPVLRCSLYYPSRPIRRL | -0.344 ± 0.58
62 | IESEGSWRIHWK | 0.638 ± 0.39
63 | IETSKFRPINVKLVIYCCHG | 0.499 ± 0.79
64 | IEYFCWFAILGKPFESGIGS | 0.991 ± 0.51
65 | IFFYRYYNSHASSGERQNGR | 0.175 ± 0.56
66 | IFNSATSTCNSRYIYIK | 4.26 ± 0.074
67 | IFSGSPGLN | 5.71 ± 0.076
68 | IFSIGW | 0.816 ± 0.45
69 | IFTAVSSVAFLSLINVLSLL | 2.75 ± 0.21
70 | IFTVTGNCTGGAHTQDVVWF | 0.381 ± 0.77
71 | IFYFYFCRYLSIQMVILGVQ | 0.983 ± 0.33
72 | IGCSCNPYGTFWG | 5.93 ± 0.066
73 | IGFPRLTSEDS | 0.755 ± 0.4
74 | IGFRPGRNSVWLMSRDLNFW | -1.11 ± 1.4
75 | IGIFIGRLCCYIFGEVMR | 1.16 ± 0.16

Row | Substance | amyloid nucleation score
76 | IGITRILFVFFIDTATIKNG | -0.855 ± 0.43
77 | IGMALKWNFLCKSSDRFLRV | 0.296 ± 0.97
78 | IGMRCWTACSSKRFESCRRV | 0.743 ± 0.44
79 | IGSRIKA | 1.04 ± 0.19
80 | IGSSHRNSLVCVVEDENIQI | 1.01 ± 0.5
81 | IGTYGHRMELLIGSRCKSRT | -0.15 ± 0.22
82 | IGVKTYYTLFIGSMYFNSKG | 3.22 ± 0.097
83 | IGYEGYPYASYGCRLLEQDA | 0.168 ± 0.32
84 | IGYITHITYSVLVL | 0.371 ± 0.3
85 | IGYRYQSMLGCEGGRWWWVV | 0.45 ± 0.58
86 | IHCDIALNRSTWLYFPFVLA | inactive
87 | IHTVTLNNHSSNGDCSSFNI | -0.453 ± 0.43
88 | IHVSENDMELVWLYGVVRI | -0.708 ± 0.9
89 | IIAKNTDKVSCTVRVSFL | -0.894 ± 1.4
90 | IICKVCLCVAPM | 2.81 ± 0.19
91 | IIDPDREYTVSN | -0.236 ± 0.95
92 | IIFELKGLPLKNGMRGLKPL | -0.579 ± 0.34
93 | IIGTPVPYLGVLKTFDIKYF | 0.125 ± 0.36
94 | IIIPFLSNSCEFMWL | 4.81 ± 0.076
95 | IIISMFRGAGRIYSF | 0.336 ± 0.64
96 | IIITFLCNYFQGWNCLLVHF | 2.35 ± 0.1
97 | IIKFSNDWDVDKFSFGSVLE | 0.596 ± 0.63
98 | IINMMLSHRDNWLFYMSFVG | -0.308 ± 0.42
99 | IIQSSTGLWFIIRKVDATYV | 0.812 ± 0.28
100 | IKCHYFDVCLNVWSLCYLAC | 1.24 ± 0.46

Row | Substance | amyloid nucleation score
101 | IKDRFLEALCVKCGLSYTQG | -0.035 ± 0.26
102 | IKKEIRSVFGLSGTSVKGNN | -0.118 ± 0.74
103 | IKRKG | 0.326 ± 0.46
104 | IKRLFWDWLGDRDLGRMSTP | inactive
105 | IKSEAWICCTSLYMNQGDRS | 8.507 ± 0.065
106 | IKSVMDWSSCTEL | -0.144 ± 0.33
107 | IKVAN | 1.1 ± 0.47
108 | IKVLSYISWCGGFEKRCVGG | 1.05 ± 0.46
109 | ILCICY | 2.48 ± 0.2
110 | ILDHT | 0.267 ± 0.33
111 | ILGAI | 1.66 ± 0.58
112 | ILHYWVAVSMAQWICIGLKK | 0.194 ± 0.45
113 | ILIEETFLS | inactive
114 | ILMFISVFYCFCRKTRYLNR | 1.01 ± 0.31
115 | ILSFSSRPVVDNHSTTW | 0.682 ± 0.51
116 | ILSIYVSDAYKSMSETN | 1.14 ± 0.42
117 | ILSNTRSVFYSSN | -0.089 ± 0.38
118 | ILSSFILVANCWILFHPLFW | -0.411 ± 0.52
119 | ILSSGGEKDFNSLYT | -0.105 ± 0.47
120 | ILTLIMAL | 0.013 ± 0.33
121 | ILVLRGCIKLR | inactive
122 | ILVPLNQGEIWRNKIRYWI | 0.019 ± 0.4
123 | IMCISFVFFNLKGYGGTG | 3.11 ± 0.082
124 | IMEMG | 0.11 ± 0.53
125 | IMGHIKM | -0.366 ± 0.44

Row | Substance | amyloid nucleation score
126 | IMMHSGPRKVPGSFGQTVHD | 0.019 ± 0.68
127 | IMNLSRNRVGLRVYGI | -0.029 ± 0.41
128 | IMVVFGITCVPASGNFLQGW | inactive
129 | IMYWITGTIMCY | 0.037 ± 0.16
130 | INALYRFGWKARFSMSC | 0.282 ± 0.45
131 | INFCRSPMPWNGSALVNLMV | -0.014 ± 0.53
132 | INRHVAMWEDQVLSRLAMWF | 2.53 ± 0.13
133 | INSRAIRLAKGDSVSWSSHG | -0.244 ± 0.32
134 | INTYWAGCIFCRMFGESRLK | 7.253 ± 0.069
135 | INVFNCCWRLIFVLEV | 2.72 ± 0.14
136 | INVIYNICFQVSW | 8.413 ± 0.052
137 | IPDNVVF | -1.27 ± 1.4
138 | IPENCSGLYWLGNYVPSIAD | -0.439 ± 0.34
139 | IPKCMYGRDRICLMLVAFEN | 1.79 ± 0.28
140 | IPRYQSGLWGCCVY | 0.489 ± 0.58
141 | IQAKKDPTAESQRGCC | 0.197 ± 0.51
142 | IQESVMLVLVDGGVISARL | 0.106 ± 0.3
143 | IQFIDRPDHIARRLVWFRIG | 0.351 ± 0.27
144 | IQLILSSAEFFSLAGSREYR | 2.43 ± 0.22
145 | IQYELMRMACSRNFIIAEFF | 0.2 ± 0.72
146 | IRFHCLHLVAVLTKTRVFEA | 0.064 ± 0.95
147 | IRGCTAC | 0.958 ± 0.76
148 | IRHRCSLMICFPAHTRGSAQ | -0.219 ± 0.68
149 | IRKGSFPD | -0.841 ± 0.82
150 | IRLGHIQVFVSGRFENRLIF | 0.257 ± 0.56

Row | Substance | amyloid nucleation score
151 | IRLLAKI | inactive
152 | IRLNVFFNMELMRLDLLWR | 0.311 ± 0.72
153 | IRMDSCRTFYLSLSWHIYCS | 0.338 ± 0.23
154 | IRMLSRSLSKMSIIFHGGKG | 1.33 ± 0.46
155 | IRSQKRYLCSGSLLCKVSRR | 1.38 ± 0.51
156 | IRTNKVFASMPYDNSDTFCS | -1.5 ± 1.9
157 | IRVLVSCVGYPFTCILKVWT | 1.18 ± 0.97
158 | IRYKA | 4.49 ± 0.11
159 | ISCTNCLKCPLYTSFRPLLC | -0.13 ± 0.44
160 | ISCWRNYLDLSSLYLFALFI | 2.53 ± 0.077
161 | ISDCNRMFTSLSWDMSSPLI | 1.75 ± 0.57
162 | ISIPYICIMVFFFDAVRVDQ | 0.49 ± 0.34
163 | ISLIFHVMNDLWCIAIELGS | 0.183 ± 0.59
164 | ISLKG | 0.655 ± 0.59
165 | ISNFVGTTMIIQGSVNTVYK | 6.962 ± 0.055
166 | ISNLWYNCCGIRPS | 5.86 ± 0.047
167 | ISNVWNCGKFRSLGLFVTGQ | 0.247 ± 0.31
168 | ISPRDHESLTNFHVRLCHMR | 0.368 ± 0.57
169 | ISPVGIIMYQCSAWLTRFRS | 0.204 ± 0.43
170 | ISRISVSEEFKGCMGREWVT | 1.1 ± 0.52
171 | ISSILFLQCLSWGGNR | 5.38 ± 0.095
172 | ISTSLSTGLGKLRESWLTYH | inactive
173 | ITDVMCMGGSTCFGNSGYTN | 0.108 ± 0.56
